The results in this text go back to the Immune Epitope Database (IEDB).

The target of assay [1] is HLA-A*02:03. The assay is described as follows: IEDB peptide-MHC binding, cellular MHC/competitive/fluorescence; ≥ and ≤ were set here for values at or beyond the usual limits of such assays.
Assay [2] addresses HLA-A*02:01. The assay is described as follows: IEDB peptide-MHC binding, purified MHC/competitive/radioactivity; ≥ and ≤ were set here for values at or beyond the usual limits of such assays.
Assay [3] addresses HLA-A*02:02. Described as above.
Assay [4] addresses HLA-A*02:06. The description is as above.
The target of assay [5] is HLA-A*68:02. The assay is described as above.
Assay [6] deals with HLA-A*02:01. The assay is described as follows: IEDB peptide-MHC binding, cellular MHC/competitive/fluorescence; ≥ and ≤ were set here for values at or beyond the usual limits of such assays.
Assay [7] addresses HLA-A*02:02. Described as above.
Assay [8] concerns the target HLA-A*02:06. The assay is described as above.
Assay [9] has as its target HLA-A*68:02. The description is as above.
Assay [10] deals with HLA-A*02:03. The assay is described as follows: IEDB peptide-MHC binding, purified MHC/competitive/radioactivity; ≥ and ≤ were set here for values at or beyond the usual limits of such assays.
[11] abbreviates: source organism: Vaccinia virus WR.
Where [12] appears, read: source organism: Mammarenavirus whitewaterense.
[13] abbreviates: source organism: Influenza A virus.

A word on the IC50: it is the concentration at which inhibition is half-maximal. Regarding ALYYVHSLL, the IC50 came to 15 µM in the assay with HLA-A*02:03 [1] (setting [11]); 0.229 µM with HLA-A*02:01 [2] (setting [11]); 0.026 µM with HLA-A*02:02 [3] (setting [11]); 3.26 µM with HLA-A*02:06 [4] (setting [11]); 0.598 µM with HLA-A*68:02 [5] (setting [11]).

With CAVIPFDDIV, the IC50 was 7.42 µM with HLA-A*02:03 [1] (setting [11]); 1.09 µM with HLA-A*02:01 [2] (setting [11]); 2.92 µM with HLA-A*02:02 [3] (setting [11]); 0.184 µM in the assay with HLA-A*02:06 [4] (setting [11]); 0.137 µM with HLA-A*68:02 [5] (setting [11]).

Consider CVDHPFIYVI, for which the 50% inhibitory concentration (IC50) in the assay with HLA-A*02:03 [1] (setting [11]) came out at 10.8 µM; with HLA-A*02:01 [2] (setting [11]) it was 2.89 µM; with HLA-A*02:02 [3] (setting [11]), 0.964 µM; in the assay with HLA-A*02:06 [4] (setting [11]), 1.61 µM; in the assay with HLA-A*68:02 [5] (setting [11]), 0.791 µM.

For the sequence DIKYISRDEL, the IC50 was found to be 9.58 µM with HLA-A*02:03 [1] (setting [11]); 3.57 µM in the assay with HLA-A*02:01 [2] (setting [11]); 2.55 µM with HLA-A*02:02 [3] (setting [11]); 2.06 µM with HLA-A*02:06 [4] (setting [11]); 0.321 µM with HLA-A*68:02 [5] (setting [11]).

With ETDDDGNYPL, the IC50 in the assay with HLA-A*02:03 [1] (setting [11]) stood at 28.2 µM; with HLA-A*02:01 [2] (setting [11]), 2.17 µM; in the assay with HLA-A*02:02 [3] (setting [11]) it was 3.59 µM; in the assay with HLA-A*02:06 [4] (setting [11]) it was 1.16 µM; with HLA-A*68:02 [5] (setting [11]) it was 0.027 µM.

FLVLIMLII: the IC50 was 9.73 µM with HLA-A*02:03 [1] (source organism: SARS-CoV1); 2.3 µM in the assay with HLA-A*02:01 [2] (source organism: SARS-CoV1); 1.63 µM in the assay with HLA-A*02:02 [3] (source organism: SARS-CoV1); 1.35 µM in the assay with HLA-A*02:06 [4] (source organism: SARS-CoV1); 2.57 µM in the assay with HLA-A*68:02 [5] (source organism: SARS-CoV1).

Turning to FSAVISGSV, the IC50 in the assay with HLA-A*02:03 [1] (setting [12]) stood at 14.1 µM; with HLA-A*02:01 [2] (setting [12]), 0.083 µM; in the assay with HLA-A*02:02 [3] (setting [12]), 0.048 µM; with HLA-A*02:06 [4] (setting [12]), 0.161 µM; in the assay with HLA-A*68:02 [5] (setting [12]), 0.0026 µM.

IAGGVCYYLL: the IC50 in the assay with HLA-A*02:03 [1] (setting [11]) came to 14.6 µM; with HLA-A*02:01 [2] (setting [11]) it was 0.174 µM; with HLA-A*02:02 [3] (setting [11]), 4.58 µM; with HLA-A*02:06 [4] (setting [11]), 0.656 µM; with HLA-A*68:02 [5] (setting [11]), 0.268 µM.

Regarding IAMLKSKNI, the half-inhibitory concentration (IC50) in the assay with HLA-A*02:01 [6] (setting [11]) came out at 46.7 µM; in the assay with HLA-A*02:02 [7] (setting [11]) it was 37.7 µM; with HLA-A*02:06 [8] (setting [11]), 10.6 µM; with HLA-A*68:02 [9] (setting [11]), 5.87 µM; with HLA-A*02:03 [10] (setting [11]), 0.846 µM.

Regarding IIELPYVGDT, the IC50 with HLA-A*02:01 [6] (setting [11]) was 46.8 µM; in the assay with HLA-A*02:02 [7] (setting [11]) it was 13.7 µM; with HLA-A*02:06 [8] (setting [11]), 17 µM; with HLA-A*68:02 [9] (setting [11]), not below 70 µM; in the assay with HLA-A*02:03 [10] (setting [11]) it was 4.42 µM.

Consider IIYSKAGNI, for which the IC50 with HLA-A*02:01 [6] (setting [11]) worked out at 50.7 µM; in the assay with HLA-A*02:02 [7] (setting [11]), 9.76 µM; with HLA-A*02:06 [8] (setting [11]), 13.7 µM; with HLA-A*68:02 [9] (setting [11]), 5.39 µM; with HLA-A*02:03 [10] (setting [11]), 0.013 µM.

As for ILSEKRKDTI, the IC50 with HLA-A*02:01 [6] (setting [11]) was not below 70 µM; with HLA-A*02:02 [7] (setting [11]), 44 µM; with HLA-A*02:06 [8] (setting [11]), not below 70 µM; with HLA-A*68:02 [9] (setting [11]), not below 70 µM; with HLA-A*02:03 [10] (setting [11]), 0.541 µM.

Regarding ITNILGGVL, the half-inhibitory concentration (IC50) with HLA-A*02:01 [6] (setting [11]) is not below 70 µM; with HLA-A*02:02 [7] (setting [11]) it was 7.38 µM; with HLA-A*02:06 [8] (setting [11]), 32.5 µM; with HLA-A*68:02 [9] (setting [11]), 9.24 µM; with HLA-A*02:03 [10] (setting [11]), 2.44 µM.

In the case of ITVGMLIYSM, the IC50 with HLA-A*02:03 [1] (setting [11]) was determined as 6.11 µM; in the assay with HLA-A*02:01 [2] (setting [11]) it was 0.167 µM; with HLA-A*02:02 [3] (setting [11]), 0.047 µM; with HLA-A*02:06 [4] (setting [11]), 0.097 µM; with HLA-A*68:02 [5] (setting [11]) it was 0.611 µM.

As to IVNTTYDFLA, the IC50 with HLA-A*02:03 [1] (setting [11]) came out at 8.27 µM; with HLA-A*02:01 [2] (setting [11]), 2.39 µM; in the assay with HLA-A*02:02 [3] (setting [11]), 1.25 µM; in the assay with HLA-A*02:06 [4] (setting [11]), 0.956 µM; with HLA-A*68:02 [5] (setting [11]), 0.991 µM.

As for IVSRSSRGV, the IC50 with HLA-A*02:03 [1] (setting [11]) amounted to 13.2 µM; in the assay with HLA-A*02:01 [2] (setting [11]), 1.98 µM; in the assay with HLA-A*02:02 [3] (setting [11]), 0.264 µM; with HLA-A*02:06 [4] (setting [11]), 0.476 µM; with HLA-A*68:02 [5] (setting [11]) it was 1.02 µM.

Turning to KTKISVEKI, the IC50 is 26.9 µM with HLA-A*02:01 [6] (setting [11]); 7.6 µM in the assay with HLA-A*02:02 [7] (setting [11]); 10.7 µM with HLA-A*02:06 [8] (setting [11]); not below 70 µM with HLA-A*68:02 [9] (setting [11]); 0.112 µM in the assay with HLA-A*02:03 [10] (setting [11]).

In the case of LAKSVFNSL, the IC50 was 30.9 µM with HLA-A*02:01 [6] (setting [13]); 14 µM with HLA-A*02:02 [7] (setting [13]); 17.1 µM with HLA-A*02:06 [8] (setting [13]); not below 70 µM with HLA-A*68:02 [9] (setting [13]); 3.1 µM with HLA-A*02:03 [10] (setting [13]).

LANERYRSA: the IC50 with HLA-A*02:01 [6] (setting [11]) is 49.1 µM; in the assay with HLA-A*02:02 [7] (setting [11]) it was 31.3 µM; with HLA-A*02:06 [8] (setting [11]), not below 70 µM; with HLA-A*68:02 [9] (setting [11]) it was not below 70 µM; in the assay with HLA-A*02:03 [10] (setting [11]), 0.554 µM.

In the case of LISSDGARVI, the IC50 in the assay with HLA-A*02:01 [6] (setting [11]) was 12.7 µM; in the assay with HLA-A*02:02 [7] (setting [11]), 7.18 µM; in the assay with HLA-A*02:06 [8] (setting [11]), 34.9 µM; with HLA-A*68:02 [9] (setting [11]), 17.9 µM; with HLA-A*02:03 [10] (setting [11]), 1.15 µM.

In the case of LMLHNPTSET, the IC50 is 8.92 µM with HLA-A*02:01 [6] (setting [11]); 39.3 µM with HLA-A*02:02 [7] (setting [11]); 11.1 µM with HLA-A*02:06 [8] (setting [11]); not below 70 µM in the assay with HLA-A*68:02 [9] (setting [11]); 4.48 µM with HLA-A*02:03 [10] (setting [11]).

As for LMSDNPKAST, the IC50 was 8.98 µM with HLA-A*02:01 [6] (setting [11]); 8.88 µM with HLA-A*02:02 [7] (setting [11]); 47.4 µM with HLA-A*02:06 [8] (setting [11]); not below 70 µM in the assay with HLA-A*68:02 [9] (setting [11]); 0.938 µM with HLA-A*02:03 [10] (setting [11]).
